Source: patent US9556424B2, “1-deoxy-D-xylulose 5-phosphate synthase alleles responsible for enhanced terpene biosynthesis” (GENOPLANTE-VALOR, priority 2010, dated 2017)
Residue numbers refer to the chain shown, from its start.

B1: MoDXS1: typical (wild type) DXS allele shared by Vitis vinifera cv Muscat Ottonel and Gewurztraminer (protein)
chain: MALCTLSFPAHFSQAAASNPQRLTPQCSHLFLGVDLQCQSQQRSKARKRPNGVCASLSDREEYHSQRPPTPLLDTINYPIHMKNLSVKELKQLADELRSDVVFNVSKTGGHLGSSLGVVELTVALHYVFNAPQDRILWDVGHQSYPHKILTGRRDQMHTMRQTDGLAGFTKRSESEYDCFGTGHSSTTISAGLGMAVGRDLKGKNNNVIAVIGDGAMTAGQAYEAMNNAGYLDSDMIVILNDNKQVSLPTATLDGPIPPVGALSSALSRLQSNRPLRELREVAKGVTKQIGGPMHELAAKVDEYARGMISGSGSTLFEELGLYYIGPVDGHNIDDLVAILKEVKSTKTTGPVLIHVVTEKGRGYPYAEKAADKYHGVTKFDPATGKQFKSSAPTQSYTTYFAEALIAEAEVDKDIVAIHAAMGGGTGLNLFHRRFPTRCFDVGIAEQHAVTFAAGLACEGIKPFCAIYSSFMQRAYDQVVHDVDLQKLPVKFAMDRAGLVGADGPTHCGAFDVAFMACLPNMVVMAPADEAELFHMVATAAAIDDRPSCFRYPRGNGVGVELPPGNKGIPIEVGRGRILIEGERVALLGYGTAVQSCLVASSLLEQHGLRITVADARFCKPLDHALIRSLAKSHEVLITVEEGSIGGFGSHVAQFLALNGLLDGTTKWSPMVLPDRYIDHGAPADQLAMAGLTPSHIAATVFNILGQTREALEIML
modifications: Vitis Vinifera
notes: typical (wild type) DXS allele shared by Vitis vinifera cv Muscat Ottonel and Gewurztraminer
B2: MoDXS2: DXS allele of Vitis vinifera cv Muscat Ottonel with K284→N mutation (protein)
chain: B1 chain with K284N, V560I
modifications: Vitis Vinifera
notes: DXS allele of Vitis vinifera cv Muscat Ottonel with K284→N mutation
B3: GwDXS2: DXS allele of Vitis vinifera cv Gewurztraminer with R306→C mutation (protein)
chain: B1 chain with R306C
modifications: Vitis Vinifera
notes: DXS allele of Vitis vinifera cv Gewurztraminer with R306→C mutation

Key:
grape berries = test: Terpenol content in grape berry skins as a function of DXS alleles (MO and GW progeny); type: in vivo, Vitis vinifera; settings: by DXS genotype in MO and GW progeny, pool of 5 major terpenols
Method: Isolation of Free and Bound Monoterpenols by Solid Phase Extraction (SPE)
For each sampling point, three replicates of terpenol analysis were performed. For each replicate, at least 25 berries were used. Seeds were removed and skins separated from mesocarps. After weighing, skins were ground under liquid nitrogen and then suspended in 40 mL of water after addition of 40 mg of sodium sulphite. The supernatant obtained after a 15-min centrifugation (11400 g at 4° C.) was passed through a glass fibre pre-filter and a glass filter. Twenty microliters of a 1 g/L 4-nonanol solution was added as external standard to allow the quantification of the main terpenols. Extraction of terpenols was adapted from Mateo et al. (1997), ethanol being used instead of methanol. The filtrate was passed through a 1 g phase C18 silica-bonded non-polar SPE column (BOND ELUT JR.), previously washed with 5 mL of methanol and 15 mL of ultra-pure water, at a rate of approximately one drop/s. The sample was then divided in two equal subsamples, one for the analysis of free and glycosidically bound monoterpenols and one for the analysis of free terpenols. Total fractions of free and bound monoterpenols were eluted with 4 mL of absolute ethanol. […]

tobacco leaves = test: Agrobacterium-mediated transient co-expression of GES and DXS alleles in tobacco leaves, geraniol by GC-MS; type: in vivo, Nicotiana benthamiana; settings: 96 h after infiltration; for increase in geraniol accumulation in tobacco leaves: co-expression with GES, in average
From the text: In order to characterize DXS alleles activity, the inventors used Agrobacterium-mediated transient transformation of tobacco (Nicotiana benthamiana), which allows a fast and efficient gene expression in tobacco leaves (Batoko et al., 2000). This approach was already used successfully to characterize genes involved in grapevine secondary metabolism (Schmidlin et al., 2008; Hugueney et al., 2009). MoDXS1, MoDXS2 and GwDXS2 alleles were expressed in tobacco leaves, together with a cDNA encoding the enzyme geraniol synthase (GES) from basilicum (Ocimum basalicum) (Iijima et al., 2004). […] Thus, GC-M5 analyses of tobacco leaves co-expressing GES and DXS alleles allowed an accurate comparison of DXS alleles activity in planta.
Grapevine DXS cDNAs were amplified by PCR using the upstream primer 5′-[…] TACGCTCTCATTTCC-3′ (SEQ ID No11) and the downstream primer 5′-[…]-3′ (SEQ ID No12), and cloned into the pDONR207 Gateway compatible vector (Invitrogen, Carlsbad, Calif.) using Gateway BP clonase (Invitrogen) according to the manufacturer's instructions. DXS cDNAs were sequenced to verify that no mutation had been introduced. For Agrobacterium-mediated transient expression, DXS cDNAs were subsequently transferred into the GATEWAY binary vector pMDC32 (Curtis and Grossniklaus., 2003). Geraniol synthase cDNA from basilicum (Ocimum basilicum) (Iijima et al., 2004) was cloned into the GATEWAY binary vector pMDC83 (Curtis and Grossniklaus., 2003) and expressed as a GFP fusion protein. All constructs were introduced into Agrobacterium tumefaciens strain C58 (pMP90) by electroporation. Nicotiana benthamiana leaves were infiltrated with A. tumefaciens cultures (OD600 0.5) according to Voinnet et al. (2003). Leaf sectors were […] for terpene content 96 h after Agrobacterium infiltration.
For each sampling point, three replicates of terpenol analysis were performed. After weighing, tobacco leaf sectors (about 1 g) were ground under liquid nitrogen and then suspended in 2 mL of ultra-pure water. […]

Molecule	terpenol content in grape berries (grape berries)	geraniol biosynthesis (tobacco leaves; co-expression with GES in tobacco leaves, versus GES alone)	increase in geraniol accumulation in tobacco leaves (tobacco leaves)
B1	extremely low levels of terpenols	substantial increases	–
B2	–	–	three time increase
B3	–	–	three time increase
